B1: OR4K15 (parent)
chain: GUUAACGGUCAUAGGCCAUGGAAACUAGGAGCACCAUUUCGCUGCCAGUGAAGAAAUGAACAAAGAAAAUCUGGGCCAGGCAGGCAUCAAAAGAAAUAGUCUUGCGCUCAACCAGAAAGUCUGUAAUCAUUUUAAGGGUA

Variants of: B1
Experiment: self-cleavage, relative activity (ratio to wild type); higher = more cleavage; in vitro, sequencing; the parent is a self-cleaving ribozyme

Row | Variant | self-cleavage
1 | GUUAACGGUCAUAGGCCAUGGAAACUAGGAGCACCAUUUCGCUGCCAGUGAAGAAAUGAACAAAGAAAAUCUGGGCCAGGCAGGCAUCAAAAGAAAUAGUCUUACGCUCAGCCAGAAAGUCUGUAAUCAUUUUAAGGGUA [G104A A111G] | 0.01
2 | GUUAACGGUCAUAGGCCAUGGAAACUAGGACCACCAUUUCGCUGCCAGUGAAGAAGUGAACAAAGAAAAUCUGGGCCAGGCAGGCAUCAAAAGAAAUAGUCUUGCGCUCAACCAGAAAGUCUGUAAUCAUUUUAAGGGUA [G31C A56G] | 1.63
3 | GUUAACGGUCAUAGGCCAUGGAAACUAGGAGCACCAUUUCGCUGCCAGUGAAGAAAUGAACAAAGAAAAUCUGGGCCAGGCAGGCAUCAAAAGAAAUAGUCUUGCGCUCAGCCAGAAAGUCUGUAAUCACUUUAAGGGUA [A111G U130C] | 0.01
4 | GUUAACGGUCAUAGGCCAUGGAAACUAGGAGCACCAUUACGCUGCCAGUGAAGAAAUGAACAAAGAAAAUCUGGGCCAGGCAGGCAUCAAAAGAAAUAGUCUUGCGCUCAACCAGAUAGUCUGUAAUCAUUUUAAGGGUA [U39A A117U] | 1.81
5 | GUUAACGGUCAUAGGCCAUGGAAACUAGGAGCACCAUUUCGCUGCCUGUGAAGAAAUGAACGAAGAAAAUCUGGGCCAGGCAGGCAUCAAAAGAAAUAGUCUUGCGCUCAACCAGAAAGUCUGUAAUCAUUUUAAGGGUA [A47U A62G] | 0.82
6 | GUUAACGGUCAUAGGCCAUGGAAACUAGGAGCACCAUUUCGCUGCCAGUGAAGAAACGAACAGAGAAAAUCUGGGCCAGGCAGGCAUCAAAAGAAAUAGUCUUGCGCUCAACCAGAAAGUCUGUAAUCAUUUUAAGGGUA [U57C A63G] | 1.05
7 | GUUAACGGUCAUAGUCCAUGGAAACUAGGAGCACCAUUUCGCUGCCAGUGAAGAAAUGAACAAAGAAAAUCUGGGCCAGGCAGGCAUCAAAAGAAAUAGUCUUGCGCUCAACCAGAAAGUCUGUAAUCAUUUUAAAGGUA [G15U G136A] | 2.24
8 | GUUAGCGGUCAUAGGCCAUGGAAACUAGGAGCACCAUUUUGCUGCCAGUGAAGAAAUGAACAAAGAAAAUCUGGGCCAGGCAGGCAUCAAAAGAAAUAGUCUUGCGCUCAACCAGAAAGUCUGUAAUCAUUUUAAGGGUA [A5G C40U] | 1.31
9 | GUUAACGGUCAUAGGCCAUGGAGACUAGGAGCACCAUUUCGCUGCCAGUGAAGAAAUGAACAAAGAAAAUCUGGGCCAGGCAGACAUCAAAAGAAAUAGUCUUGCGCUCAACCAGAAAGUCUGUAAUCAUUUUAAGGGUA [A23G G84A] | 1.58
10 | GUUAACGGUCAUAGGCCAUGGAAACUAGGAGCACCAUUUCGCUGCCAGUGAAGAAAUGAACAAAGAGAAUCUGGGCCAGGCAGGCAUCAAAAGAAAUAGUCUUGCGCUCAACCAGAAUGUCUGUAAUCAUUUUAAGGGUA [A67G A118U] | 0.81
11 | GUUAACGGUCAUAGGCCAUAGAAACUAGGAGCACCAUUUCGCUGCCAGUGAAGAAAUGAACAAAGAAAAUCUGGGCCAGGCAGGCAUCAAAAGAAAUAGUCCUGCGCUCAACCAGAAAGUCUGUAAUCAUUUUAAGGGUA [G20A U102C] | 2.1
12 | GUUAACGGUCAUAGGCCAUGGAAACUAGGAGCACCAUUUCGCUGCCAGUGAAGAUAUGAACAAAGAAAAUCUGGGCCAGGCAGGCAUCAAAAGAAAUAGUCUUGCGCUCAACCAGAAAGUCUGUAAACAUUUUAAGGGUA [A55U U127A] | 2.63
13 | GUUAACGGUCAUAGUCCAUGGAAACUAGGAGCACCAUAUCGCUGCCAGUGAAGAAAUGAACAAAGAAAAUCUGGGCCAGGCAGGCAUCAAAAGAAAUAGUCUUGCGCUCAACCAGAAAGUCUGUAAUCAUUUUAAGGGUA [G15U U38A] | 1.8
14 | GUUAACGGUCAUAGGCCAUGGAAGCUAGGAGCACCAUCUCGCUGCCAGUGAAGAAAUGAACAAAGAAAAUCUGGGCCAGGCAGGCAUCAAAAGAAAUAGUCUUGCGCUCAACCAGAAAGUCUGUAAUCAUUUUAAGGGUA [A24G U38C] | 1.46
15 | GUUAACGGUCAUAGGCCAUGGAAACUAGGAGCACCAUUUCGCUGCCAGUGAAGAAAUGAACAAAGAAAAUCUGGGCCAGGCAGGCAUCAAAAGAAAUAGUCUUGCGCUCAACCAGAAAGUCUGUAAUCAUUUUAAGAGUA [G137A] | 1.12
16 | GUUAACGGUCAUAGGCCAUGGAAACUAGGAGCACCAUUUCGCUGCCACUGAAGAGAUGAACAAAGAAAAUCUGGGCCAGGCAGGCAUCAAAAGAAAUAGUCUUGCGCUCAACCAGAAAGUCUGUAAUCAUUUUAAGGGUA [G48C A55G] | 1.64
17 | GUUAACGGUCAUAGGCCAUGGAAACUAGGAGCACCAUUUCGCUGCCAGUGAAGAAAUGAACUAAGAAAAUCUGGGCCAGGCAGGCAUCAAAAGAAAUAGUCUUGCGCUCAACCAGAAAGUCUGUAAUCAUUUUAAGGGAA [A62U U139A] | 1.78
18 | GUUAACGGUCAUAGGCCAUGCAAACUAGGAGCACCAUUUCGCUGCCAGUGAAGAAAUGAACAAAGAAAAUCUGGGCCGGGCAGGCAUCAAAAGAAAUAGUCUUGCGCUCAACCAGAAAGUCUGUAAUCAUUUUAAGGGUA [G21C A78G] | 0.27
19 | GUUAACGGUCAUAGGCCAUGGAAACCAGGAGCACCAUUUCGCUGCCAGUGAAGAAAUGAACAAAGAAAAUCUGGGCCAGGCAGGCAUCAAAAGAAAUAGUCUUGCGCUCAACCAGAAAGUCUGUAAUCAUAUUAAGGGUA [U26C U131A] | 1.02
20 | GCUAACGGUCAUAGGCCAUGGAAACUAGGAGCACCAUUUCGCUGCCAGUGAAGAAAUGAACAAAGAAAAUCUGGGCCAGGCAGGCAUCAAAAGAAAUAGUCUUGCGCUCAACCAGUAAGUCUGUAAUCAUUUUAAGGGUA [U2C A116U] | 0
21 | GUUAACGGUCAUAGGCCAUGGAAACUAGGAGCACCAUUUCGCUGCCAGUGAAGAAAUGAACAAAGAAAUUCUGGGCCAGGCAGGCAUCAAAAGAAAUAGCCUUGCGCUCAACCAGAAAGUCUGUAAUCAUUUUAAGGGUA [A69U U100C] | 2.44

Source: the RNAGym collection of RNA variant scans (doi:10.7554/elife.90254)
